This note sets out measurements from paper PMC3500403 (Developmental cell, 2012).

The target of this test is taxol stabilized microtubules (UniProt Q6B856 1-445). The experiment in a line: co-sedimentation.

B1: C. elegans SKA-1 microtubule binding domain (residues 118-243) (domain or fragment, UniProt Q9XWS0 118-243, looked up)
chain: NDIRIVPQITDEEFKTIPKYQLGRLTLEMMNEIVSKMDDFLMKKSKILGKTNKQLTRSDREVLDNWRELEMKARKRLPTTLFFIETDIRPMLQDRLRPSFAKAIPCLRHIRRIREERCGPLTFYYP
Molecule B1 gave a Kd of 6.3 µM.

For orientation: Kd means the equilibrium constant for the complex coming apart. The low end stands for a tighter complex, the high end for a looser complex.
